This is an account of results in PMC3618327, “Genetic and Biochemical Characterization of the MinC-FtsZ Interaction in Bacillus subtilis” (PLoS ONE, 2013).

The labels stand for the following.
B1: His6-FtsZ R376T (natural protein, B. subtilis, UniProt P17865 1-382, looked up)
chain: MLEFETNIDGLASIKVIGVGGGGNNAVNRMIENEVQGVEYIAVNTDAQALNLSKAEVKMQIGAKLTRGLGAGANPEVGKKAAEESKEQIEEALKGADMVFVTAGMGGGTGTGAAPVIAQIAKDLGALTVGVVTRPFTFEGRKRQLQAAGGISAMKEAVDTLIVIPNDRILEIVDKNTPMLEAFREADNVLRQGVQGISDLIATPGLINLDFADVKTIMSNKGSALMGIGIATGENRAAEAAKKAISSPLLEAAIDGAQGVLMNITGGTNLSLYEVQEAADIVASASDQDVNMIFGSVINENLKDEIVVTVIATGFIEQEKDVTKPQRPSLNQSIKTHNQSVPKREPKREEPQQQNTVSRHTSQPADDTLDIPTFLTNRNKRG
notes: FtsZ of Bacillus subtilis, mutant in the C-terminal peptide (CTP); source: E. coli BL21(DE3)-RIL, purified (two-step ammonium sulfate and GTP+Ca2+ precipitation); not shown: His6, N-terminal, kept
B2: His6-FtsZ, wild-type Bacillus subtilis FtsZ (natural protein, B. subtilis, UniProt P17865 1-382, looked up)
chain: B1 chain with T376R
notes: FtsZ of Bacillus subtilis, the ftsZ gene cloned into pET28a; also called WT; FtsZ^WT; source: E. coli BL21(DE3)-RIL, purified (two-step ammonium sulfate and GTP+Ca2+ precipitation); not shown: His6, N-terminal, kept
B3: His6-FtsZ K243R (natural protein, B. subtilis, UniProt P17865 1-382, looked up)
chain: B1 chain with K243R, T376R
notes: FtsZ of Bacillus subtilis, mutant from the error-prone PCR library; source: E. coli BL21(DE3)-RIL, purified (two-step ammonium sulfate and GTP+Ca2+ precipitation); not shown: His6, N-terminal, kept
B4: His6-FtsZ D287V (natural protein, B. subtilis, UniProt P17865 1-382, looked up)
chain: B1 chain with D287V, T376R
notes: as for B3
B5: His6-FtsZ T111A (natural protein, B. subtilis, UniProt P17865 1-382, looked up)
chain: B1 chain with T111A, T376R
notes: FtsZ of Bacillus subtilis, promiscuous mutant in the N-terminal subdomain; source: E. coli BL21(DE3)-RIL, purified (two-step ammonium sulfate and GTP+Ca2+ precipitation); not shown: His6, N-terminal, kept
B6: MinC Y44W (tryptophan mutant of Bacillus subtilis MinC) (natural protein, B. subtilis, UniProt Q01463 1-226, looked up)
chain: MKTKKQQYVTIKGTKNGLTLHLDDACSFDELLDGLQNMLSIEQWTDGKGQKISVHVKLGNRFLYKEQEEQLTELIASKKDLFVHSIDSEVITKKEAQQIREEAEIISVSKIVRSGQVLQVKGDLLLIGDVNPGGTVRAGGNIFVLGSLKGIAHAGFNGNNQAVIAASEMLPTQLRINHVLNRSPDHIQKGNEMECAYLDTDGNMVIERLQHLAHLRPDLTRLEGGM
notes: MinC of Bacillus subtilis with tryptophan at position 44 of the N-terminal domain; The methods name both His6-MinC (pET28a) and MinC-His6 (pET24b); also called tryptophan mutant MinC Y44W

Changes are numbered by the printed parent chain. In names and notes the source's numbering stands.

The target of data set [1] is T1, MinC-His6, wild-type Bacillus subtilis MinC (B. subtilis, UniProt Q01463 1-226).
T1 sequence (looked up): B6 chain with W44Y
The data set can be described thus: cell-based or functional assay.

Data set [2] concerns the molecule itself. The data set can be described thus: sedimentation of polymers; 7 µM FtsZ in Mes/NaOH 50 mM, MgCl2 10 mM, KCl 133 mM, DEAE-dextran 0.6 mg/mL, pH 6.5, GTP 2 mM, room temperature, 100.000 rpm 15 min; pellet and supernatant on SDS-PAGE.
For data set [3], the target named is B2. The data set can be described thus: other fluorescence titration; intrinsic Trp fluorescence of 1 µM MinC Y44W with 0.5-3 µM FtsZ in solution; Tris/HCl 20 mM, KCl 100 mM, EDTA 5 mM, pH 7.5; excitation 295 nm, emission 320-360 nm; the interaction was inhibited by salt (1 M KCl). To be noted: both partners purified.

As to B1, the “light scattering signal of FtsZ polymerization with MinC (7 µM FtsZ, 20 µM MinC) relative to the signal in the absence of MinC” value in data set [1] turned out to be 70%. The binding result in data set [2] is recorded as “binds”. For the molecule B2, the binding result in data set [2] was “binds”. The same measure, in the same setting: to B3 belongs “binds”.

As to B4, the binding result in data set [2] is recorded as “binds”. Take B5: the binding result in data set [2] was “binds”. In the case of B6, the Kd in data set [3] was around 1000 nM.
